Experimental data from IntAct's records for PubMed 20869963.

B1: Protein Rex (Human T-cell leukemia virus 1 (strain Japan ATK-1 subtype A)), P0C205 (parent)
chain: MPKTRRRPRRSQRKRPPTPWPTSQGLDRVFFSDTQSTCLETVYKATGAPSLGDYVRPAYIVTPYWPPVQSIRSPGTPSMDALSAQLYSSLSLDSPPSPPREPLRPSRSLPRQSLIQPPTFHPPSSRPCANTPPSEMDTWNPPLGSTSQPCLFQTPDSGPKTCTPSGEAPLSACTSTSFPPPSPGPSCPT

Variants of: B1
Settings: with dicer_human DICER1, Q9UPY3

| Variant | effect of a mutation on the interaction |
| --- | --- |
| MPKTRRDPRRSQRKRPPTPWPTSQGLDRVFFSDTQSTCLETVYKATGAPSLGDYVRPAYIVTPYWPPVQSIRSPGTPSMDALSAQLYSSLSLDSPPSPPREPLRPSRSLPRQSLIQPPTFHPPSSRPCANTPPSEMDTWNPPLGSTSQPCLFQTPDSGPKTCTPSGEAPLSACTSTSFPPPSPGPSCPT [R7D] | decreasing interaction |
| MPKTRDRPRRSQRKRPPTPWPTSQGLDRVFFSDTQSTCLETVYKATGAPSLGDYVRPAYIVTPYWPPVQSIRSPGTPSMDALSAQLYSSLSLDSPPSPPREPLRPSRSLPRQSLIQPPTFHPPSSRPCANTPPSEMDTWNPPLGSTSQPCLFQTPDSGPKTCTPSGEAPLSACTSTSFPPPSPGPSCPT [R6D] | decreasing interaction |
| MPKTDRRPRRSQRKRPPTPWPTSQGLDRVFFSDTQSTCLETVYKATGAPSLGDYVRPAYIVTPYWPPVQSIRSPGTPSMDALSAQLYSSLSLDSPPSPPREPLRPSRSLPRQSLIQPPTFHPPSSRPCANTPPSEMDTWNPPLGSTSQPCLFQTPDSGPKTCTPSGEAPLSACTSTSFPPPSPGPSCPT [R5D] | decreasing interaction |

Variants of: B1
Settings: with dicer_human DICER1, Q9UPY3
Remark: another data set of the same source

| Variant | effect of a mutation on the interaction |
| --- | --- |
| MPKTRRRPRRSQRKRPPTPWPTSQGLDRVFFSDTQSTCLETVYKATGAPSLGDYVRPAYIVTPYWPPVQSIRSPGTPSMDALSAQLYSSASLDSPPSPPREPLRPSRSLPRQSLIQPPTFHPPSSRPCANTPPSEMDTWNPPLGSTSQPCLFQTPDSGPKTCTPSGEAPLSACTSTSFPPPSPGPSCPT [L90A] | decreasing interaction |
| MPKTRRRPRRSQRKRPPTPWPTSQGLDRVFFSDTQSTCLETVYKATGAPSLGDYVRPAYIVTPYWPPVQSIRSPGTPSMDALSAQLYSSLSADSPPSPPREPLRPSRSLPRQSLIQPPTFHPPSSRPCANTPPSEMDTWNPPLGSTSQPCLFQTPDSGPKTCTPSGEAPLSACTSTSFPPPSPGPSCPT [L92A] | decreasing interaction |

Variants of: B1
Settings: with dicer_human DICER1, Q9UPY3
Remark: another data set of the same source

| Variant | effect of a mutation on the interaction |
| --- | --- |
| MPKTRRRPRRSQRKRPPTPWPTSQGLDRVFFSDTQSTCLETVYKATGAPSLGDYVRPAYIVTPYWPPVQSIRSPGTPSMDALSAQLYSSLSLDSPPSPPREPLRPSRSLPRQSLIQPPTLHPPSSRPCANTPPSEMDTWNPPLGSTSQPCLFQTPDSGPKTCTPSGEAPLSACTSTSFPPPSPGPSCPT [F120L] | disrupting interaction |
| MPKTRRRPRRSQRKRPPTPWPTSQGLDRVFFSDTQSTCLETVYKATGAPSLGDYVRPAYIVTPYWPPVQSIRSPGTPSMDALSAQLYSSLSLDSPPSPPREPLRPSRSLPRQSLIQPPTFLPPSSRPCANTPPSEMDTWNPPLGSTSQPCLFQTPDSGPKTCTPSGEAPLSACTSTSFPPPSPGPSCPT [H121L] | disrupting interaction |
| MPKTRRRPRRSQRKRPPTPWPTSQGLDRVFFSDTQSTCLETVYKATGAPSLGDYVRPAYIVTPYWPPVQSIRSPGTPSMDALSAQLYSSLSLDSPPSPPREPLRPSRSLPRQSLIQPPDFHPPSSRPCANTPPSEMDTWNPPLGSTSQPCLFQTPDSGPKTCTPSGEAPLSACTSTSFPPPSPGPSCPT [T119D] | disrupting interaction |

Variants of: B1
Settings: with dicer_human DICER1, Q9UPY3
Remark: another data set of the same source

| Variant | effect of a mutation on the interaction |
| --- | --- |
| MPKTRRRPRRSQRKRPPTPWPTSQGLDRVFFSDTQSTCLETVYKATGAPSLGDYVRPAYIVTPYLPPVQSIRSPGTPSMDALSAQLYSSLSLDSPPSPPREPLRPSRSLPRQSLIQPPTFHPPSSRPCANTPPSEMDTWNPPLGSTSQPCLFQTPDSGPKTCTPSGEAPLSACTSTSFPPPSPGPSCPT [W65L] | disrupting interaction |
| MPKTRRRPRRSQRKRPPTPWPTSQGLDRVFFSDTQSTCLETVYKATGAPSLGDYVRPAYIVTPDWPPVQSIRSPGTPSMDALSAQLYSSLSLDSPPSPPREPLRPSRSLPRQSLIQPPTFHPPSSRPCANTPPSEMDTWNPPLGSTSQPCLFQTPDSGPKTCTPSGEAPLSACTSTSFPPPSPGPSCPT [Y64D] | disrupting interaction |
